Test results: publication PMC10463352, “A signaling complex of adenylate cyclase CyaC of Sinorhizobium meliloti with cAMP and the transcriptional regulators Clr and CycR” (BMC Microbiology, 2023)
Values belong to the molecule of their own block, whether it stands above or below them.

B1: His6-CyaC (enzyme, Sinorhizobium meliloti, UniProt Q92MZ6 1-557, looked up)
chain: MTILSASTRKKMHLISGAVLGVFVLLHFSNHALGLVSIDAMETGRRIFTSVWQSIPGTALLYGALLLHFLMALDSLYRRQTFRMPVGEALKIIFGLSLPFLLVPHVVAARVEPLLSGVYPDYPAILRTLWSSSFNTSRQSLALIVVWGHACLGAWFWMRGRAWFPKYETLLYTVALLVPIFALLGFVNGARSLERDYAEHGGYGDRAYSSQAPRVDPNLLDKIRLAFYGGFASLIGGTLVLRALPARGRIRIRYPDGRVAAVSLGFSVLEASRAAGIPHVSVCGGRGRCSTCRVRITQGLEGQPPPEAAELATLTRIGAPENVRLACQFRPVHNVSVVPILDTDSLGIKTQLARQNAGGRERRVAVLFCDLRDFTRIAEHRLPYDTVFLLNRYFEVVGEAVEGSGGVVDKFIGDGALAIFGLKTPLPEACRQALSAAARLSQGIRALNQTFEGELEQPLRLAIGLHAGPAIIGEMGYGQATSLTVVGDTINTASRLEGLAKEHDVELAVSAELVERAGLSFEGHRRLEIGLRGRKATLETWIIGDAAQLSLSLPMQG
notes: His6-CyaC printed as 64.0 kDa; Solubilised in detergent; also called SMc01818 protein; source: E. coli C43(DE3) with pMW3043, extracted from membranes with 1% n-dodecyl-β-D-maltoside, purified (Ni2+-NTA); not shown: His6, N-terminal, kept
B2: CycR-Strep (natural protein, Sinorhizobium meliloti, UniProt Q92MZ5 1-213, looked up)
chain: MVLPRAARTQRRTRIQEEKEEQILEAALEVFSANGFRGSTIDQIADVAGMSKPNLLYYFRTKEAMHRALIDRVLDTWLDPLRAFDAEGNPVAEIRSYIRRKLEMARDFPRESRLFANEVLQGAPRIVDELKGPLKQLVDEKAEVIRSWAKAGKIAKCDPYHLIFAIWSTTQHYADFDVQVRAVLGQENAGEGRFEDAARFLERLFVDGLQVRE
notes: TetR-like transcriptional regulator CycR (TR01819, product of gene smc01819) of Sinorhizobium meliloti; CycR-Strep printed as 28.3 kDa; The purification is told in words only for Clr-Strep; also called Strep-CycR; TR01819; source: E. coli BL21(DE3) with pMW3065, purified; not shown: Strep, C-terminal, kept

Tests used:
[1] = target: CyaC(K410A T484A), fused to the T18 or T25 fragment of Bordetella pertussis adenylate cyclase (Sinorhizobium meliloti); test: two-hybrid; bacterial adenylate cyclase two-hybrid (BACTH) in E. coli BTH101; T18 and T25 fusions co-expressed from plasmids; grown anaerobically in LB with 20 mM DMSO; β-galactosidase read-out, percent of the Zip-T18/Zip-T25 positive control
[2] = target: B2; test: SPR; Biacore T200, CM5 chip with StrepTactin; about 200 RU CycR-Strep captured; His6-CyaC injected at 10-5,000 nM; HBS-EP+ (10 mM HEPES pH 7.4, 150 mM NaCl, 3 mM EDTA, 0.05% P20), 25 °C; without cAMP; conditions: both partners purified
[3] = target: B1; test: as above; conditions: both partners purified
[4] = target: B1; test: SPR; Biacore T200, CM5 chip with StrepTactin; about 200 RU CycR-Strep captured; His6-CyaC injected at 10-5,000 nM; HBS-EP+ (10 mM HEPES pH 7.4, 150 mM NaCl, 3 mM EDTA, 0.05% P20), 25 °C; with 500 µM cAMP; conditions: both partners purified

BACTH β-galactosidase activity, percent of the Zip positive control [1]: 108%
Molecule: Clr (Smc02175), fused to the T18 or T25 fragment of Bordetella pertussis adenylate cyclase (natural protein)

Molecule: B1
stoichiometry N [2]: 1

Molecule: B2
Kd [3]: 160 nM
Kd [4]: 114 nM
